Columns and labels:
[1] = biological target: T1, TRMT112 (KMT9beta; tRNA methyltransferase subunit 11-2, isoform 2, Homo sapiens)
T1 chain: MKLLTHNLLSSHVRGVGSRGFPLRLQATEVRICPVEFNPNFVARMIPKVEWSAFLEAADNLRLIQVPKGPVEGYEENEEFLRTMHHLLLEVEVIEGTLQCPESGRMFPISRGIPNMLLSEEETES

[2] = biological target: mutant histone H4 where K12 was changed to alanine (H4K12A), P62805

B1: C21orf127 (KMT9alpha; N-6 adenine-specific DNA methyltransferase 1, isoform 1, Homo sapiens) (protein)
chain: MAGENFATPFHGHVGRGAFSDVYEPAEDTFLLLDALEAAAAELAGVEICLEVGSGSGVVSAFLASMIGPQALYMCTDINPEAAACTLETARCNKVHIQPVITDLVKGLLPRLTEKVDLLVFNPPYVVTPPQEVGSHGIEAAWAGGRNGREVMDRFFPLVPDLLSPRGLFYLVTIKENNPEEILKIMKTKGLQGTTALSRQAGQETLSVLKFTKS
[1]
  HMT activity (methylation assay): only the C21orf127/TRMT112 heterodimer displayed HMT activity

B2: C21orf127/TRMT112 heterodimer (KMT9) (protein)
chain 1: MAGENFATPFHGHVGRGAFSDVYEPAEDTFLLLDALEAAAAELAGVEICLEVGSGSGVVSAFLASMIGPQALYMCTDINPEAAACTLETARCNKVHIQPVITDLVKGLLPRLTEKVDLLVFNPPYVVTPPQEVGSHGIEAAWAGGRNGREVMDRFFPLVPDLLSPRGLFYLVTIKENNPEEILKIMKTKGLQGTTALSRQAGQETLSVLKFTKS
chain 2: MKLLTHNLLSSHVRGVGSRGFPLRLQATEVRICPVEFNPNFVARMIPKVEWSAFLEAADNLRLIQVPKGPVEGYEENEEFLRTMHHLLLEVEVIEGTLQCPESGRMFPISRGIPNMLLSEEETES
Histone H4, P62805
  in vitro methylation assay with SAM [3H] (FIG. 1A, FIG. 1B): wild-type H4 protein, but not mutant H4 where K12 was changed to an alanine (A) residue (H4K12A), was methylated
[2]
  in vitro methylation assay with SAM [3H] (FIG. 1B): wild-type H4 protein, but not mutant H4 where K12 was changed to an alanine (A) residue (H4K12A), was methylated

B3: C21orf127(Y125A)/TRMT112 complex (protein)
chain 1: MAGENFATPFHGHVGRGAFSDVYEPAEDTFLLLDALEAAAAELAGVEICLEVGSGSGVVSAFLASMIGPQALYMCTDINPEAAACTLETARCNKVHIQPVITDLVKGLLPRLTEKVDLLVFNPPAVVTPPQEVGSHGIEAAWAGGRNGREVMDRFFPLVPDLLSPRGLFYLVTIKENNPEEILKIMKTKGLQGTTALSRQAGQETLSVLKFTKS
chain 2: MKLLTHNLLSSHVRGVGSRGFPLRLQATEVRICPVEFNPNFVARMIPKVEWSAFLEAADNLRLIQVPKGPVEGYEENEEFLRTMHHLLLEVEVIEGTLQCPESGRMFPISRGIPNMLLSEEETES
ETF1, P62495
  methylation of ETF1 (methylation assay): resulted in methylation of H4K12, but not ETF1 by the mutant C21orf127(Y125A)/TRMT112 complex
Histone H4, P62805
  methylation of H4K12 (methylation assay): resulted in methylation of H4K12, but not ETF1 by the mutant C21orf127(Y125A)/TRMT112 complex
